Results on four molecules are retold here after US9951356B2, “Processes to prepare elongated 2-ketoacids and C6-C10 compounds therefrom via genetic modifications to microbial metabolic pathways” (Dow Global Technologies LLC, priority 2013, dated 2018).

What all share (assay type): biochemical
A short description of data set [1]: HTP LeuB kinetic assay, oxidative decarboxylation of 3-BM. To be noted: for Km / kcat: substrate 3-BM, mean ± S.D. How it is done:
(§1) The evaluation of the LeuB variants is performed in two steps using the high-throughput enzyme assay described below. Initially, all of the variants are screened for activity against a single high concentration of 3-IPM, 3-BM and 3-HM. Following the initial evaluation, detailed kinetic analysis is performed on a select number of variants to determine the maximal rate (kcat), Michaelis-Menten constant (KM), and the catalytic efficiency of the variant enzymes (kcat/KM).
(§2) A suitable spectrophotometric LeuB enzyme assay is adapted into a high-throughput format in 96-well plates for the kinetic evaluation of LeuB and its variants (shown in Table 1) against 3-isopropylmalate (3-IPM), 3-butylmalate (3-BM), and 3-hexylmalate (3-HM). See, for example, Hsu, Y.; Kohlhaw, G. B. “Leucine biosynthesis in Saccharomyces cerevisiae. Purification and characterization of beta-isopropylmalate dehydrogenase,” J. Biol. Chem., 1980, 255:7255-7260. Steady state kinetic parameters (kcat, KM and kcat/KM) for the oxidative decarboxylation of the three substrates by the variants are determined in these experiments.
(§3) The HTP kinetic assay involves incubating eight varied concentrations, of 3-IPM (from 0 to 1.2 mM) or 3-BM (from 0 to 2 mM) or 3-HM (from 0 to 2 mM), with 2 mM NAD^+ in LeuB assay buffer (50 mM HEPES, pH 8.0, containing 30 mM KCl and 5 mM MgCl2) at 25° C. The reaction is started by adding from 0.008 μg to 0.5 μg of LeuB variant which has been pre-diluted in assay buffer containing 1 mM DTT and 1 mg/mL BSA. The plate containing the 200 μl of reaction mixture is centrifuged at 2500×g for 15 sec and the absorbance change is followed spectrophotometrically at 340 nm on a BioTek™ plate reader maintained at 25° C. Initial velocity of the enzyme reaction is calculated from the rate of NADH production at 340 nm and using the extinction coefficient of NADH (6.22 mM^−1cm^−1). The kinetic parameters (kcat, KM and kcat/KM) of oxidative decarboxylation of 3-alkylmalate are determined by fitting the data to the Michaelis-Menten equation using nonlinear regression performed using the GraphPad Prism™ software. Table 3 lists the kinetic parameters of the wild type and engineered variants against the three substrates. The amount of enzyme in the reaction mixture is determined using the 660 nm total protein assay kit acquired from Pierce Biotechnology Inc.™, using BSA as the standard.

Data set [2] in a line: HTP LeuB kinetic assay, oxidative decarboxylation of 3-HM. The following applies: for Km / kcat: substrate 3-HM, mean ± S.D.; for increase in efficiency of capturing 3-HM compared with the wild type enzyme: more efficient than wild type LeuB. As to the method:
as §1, §2, §3

The nature of data set [3]: HTP screening assay of LeuB variants, 3-BM. The following applies: 1 mM 3-BM, 2 mM NAD+, pH 8.0, 25° C.; mean of duplicates. As to the method: as §1, §2
(§4) The HTP screening assay involves incubating 750 micromoles (μM) of 3-IPM, 1 mM 3-BM or 1 mM 3-HM, with 2 mM nicotinamide adenine dinucleotide (NAD^+) in LeuB assay buffer (50 mM 4-(2-hydroxyethyl) piperazine-1-ethanesulfonic acid (HEPES), pH 8.0, containing 30 mM potassium chloride (KCl) and 5 mM magnesium chloride (MgCl2)) at 25° C. The reaction is started by the addition at 25° C. of working enzyme stock containing from 0.3 microgram (μg) to 1.1 μg of LeuB variant diluted in assay buffer containing 1 mM DTT and 1 milligram per milliliter (mg/mL) bovine serum albumin (BSA). The plate containing the 200 μL of reaction mixture is centrifuged at 2500×g for 15 seconds (sec) and the absorbance change of the reaction mixture is followed spectrophotometrically at 340 nm on a BioTek™ plate reader, pre-equilibrated at 25° C. Initial velocity of the enzyme reaction is calculated from the rate of NADH production at 340 nm and using the extinction coefficient of NADH (6.22 per millimolar per centimeter (mM^−1cm^−1)). The activity of all the variants is normalized with the amount of enzyme present in the reaction mixture and expressed as nanomoles per minute per microgram (nmol·min^−1·μg^−1) (Table 2). Protein concentrations for normalizing the activities are determined using the 660 nm total protein assay kit acquired from Pierce Biotechnology Inc.™, available from Thermo Fisher Scientific, Inc., and using BSA as the standard.

Data set [4] is described as follows: HTP screening assay of LeuB variants, 3-HM. The following applies: for Specific activity, 3-HM: 1 mM 3-HM, 2 mM NAD+, pH 8.0, 25° C., mean of duplicates; for activity against 3-HM compared with the wild type enzyme: screening at single high concentration. How it is done:
as §1, §2, §4

Data set [5] is described as follows: HTP LeuB kinetic assay, oxidative decarboxylation of 3-IPM. To be noted: for decrease in efficiency of capturing 3-IPM compared with the wild type enzyme: less efficient than wild type LeuB; for Km / kcat: substrate 3-IPM, mean ± S.D. As to the method: as §1, §2, §3
Data set [6] can be described thus: HTP screening assay of LeuB variants, 3-IPM. To be noted: 750 μM 3-IPM, 2 mM NAD+, pH 8.0, 25° C.; mean of duplicates. How it is done:
as §1, §2, §4

B1: L96A: E. coli isopropylmalate dehydrogenase (LeuB) with Leu-96 replaced with alanine (protein, UniProt P30125 2-363, looked up, variant L96A)
3-isopropylmalate …: SKNYHIAVLPGDGIGPEVMTQALKVLDAVRNRFAMRITTSHYDVGGAAIDNHGQPLPPATVEGCEQADAVLFGSVGGPKWEHLPPDQQPERGALAPLRKHFKLFSNLRPAKLYQGLEAFCPLRADIAANGFDILCVRELTGGIYFGQPKGREGSGQYEKAFDTEVYHRFEIERIARIAFESARKRRHKVTSIDKANVLQSSILWREIVNEIATEYPDVELAHMYIDNATMQLIKDPSQFDVLLCSNLFGDILSDECAMITGSMGMLPSASLNEQGFGLYEPAGGSAPDIAGKNIANPIAQILSLALLLRYSLDADDAACAIERAINRALEEGIRTGDLARGAAAVSTDEMGDIIARYVAEGV
As to B1, in data set [1] (in words), the “efficiency of capturing 3-BM compared with the wild type enzyme” value was “modestly poor”. Further, in data set [1], the Km was 130 ± 20 µM and the kcat was 7 ± 0.367 s⁻¹. In data set [2], the Km came out at 240 ± 40 µM and the kcat came to 0.683 ± 0.0083 s⁻¹. Further, the “Specific activity, 3-BM” value in data set [3] came to 9.48 nmol/min/µg. In data set [4], the “Specific activity, 3-HM” value worked out at 0.77 nmol/min/µg and the “activity against 3-HM compared with the wild type enzyme” value was “higher activity than the wild type enzyme”. For the same molecule, in data set [5], the “decrease in efficiency of capturing 3-IPM compared with the wild type enzyme” value (“decrease in efficiency” below) is reported as “approximately 4 fold”, the Km amounted to 16 ± 10 µM and the kcat is 11.1 ± 2.57 s⁻¹. In data set [6], the “Specific activity, 3-IPM” value was 15.4 nmol/min/µg.

B2: V198A: E. coli LeuB variant with Val-198 replaced with alanine (protein, UniProt P30125 2-363, looked up, variant V198A)
3-isopropylmalate …: SKNYHIAVLPGDGIGPEVMTQALKVLDAVRNRFAMRITTSHYDVGGAAIDNHGQPLPPATVEGCEQADAVLFGSVGGPKWEHLPPDQQPERGALLPLRKHFKLFSNLRPAKLYQGLEAFCPLRADIAANGFDILCVRELTGGIYFGQPKGREGSGQYEKAFDTEVYHRFEIERIARIAFESARKRRHKVTSIDKANALQSSILWREIVNEIATEYPDVELAHMYIDNATMQLIKDPSQFDVLLCSNLFGDILSDECAMITGSMGMLPSASLNEQGFGLYEPAGGSAPDIAGKNIANPIAQILSLALLLRYSLDADDAACAIERAINRALEEGIRTGDLARGAAAVSTDEMGDIIARYVAEGV
Turning to B2, in data set [2], the “increase in efficiency of capturing 3-HM compared with the wild type enzyme” value was 5 fold, the Km stood at 110 ± 10 µM and the kcat came out at 1.62 ± 0.55 s⁻¹. Besides, the “Specific activity, 3-BM” value in data set [3] is 1.81 nmol/min/µg. In data set [4], the “Specific activity, 3-HM” value came out at 2.5 nmol/min/µg and the “activity against 3-HM compared with the wild type enzyme” value is “higher activity than the wild type enzyme”. Besides, in data set [5], the “decrease in efficiency” value is reported as 1,000 fold. Further, in data set [6], the “Specific activity, 3-IPM” value amounted to 2.83 nmol/min/µg.

B3: Wild type LeuB: native E. coli LeuB (isopropylmalate dehydrogenase), SEQ ID 2, histidine-tagged (protein, UniProt P30125 2-363, looked up)
3-isopropylmalate …: SKNYHIAVLPGDGIGPEVMTQALKVLDAVRNRFAMRITTSHYDVGGAAIDNHGQPLPPATVEGCEQADAVLFGSVGGPKWEHLPPDQQPERGALLPLRKHFKLFSNLRPAKLYQGLEAFCPLRADIAANGFDILCVRELTGGIYFGQPKGREGSGQYEKAFDTEVYHRFEIERIARIAFESARKRRHKVTSIDKANVLQSSILWREIVNEIATEYPDVELAHMYIDNATMQLIKDPSQFDVLLCSNLFGDILSDECAMITGSMGMLPSASLNEQGFGLYEPAGGSAPDIAGKNIANPIAQILSLALLLRYSLDADDAACAIERAINRALEEGIRTGDLARGAAAVSTDEMGDIIARYVAEGV
Turning to B3, the Km in data set [1] was determined as 38 ± 13 µM; in data set [2] it was 160 ± 20 µM; in data set [5] it was 9 ± 3 µM. For the same molecule, the results for the kcat in data set [1], in data set [2] and in data set [5] were 3.65 ± 0.333 s⁻¹, 0.433 ± 0.033 s⁻¹ and 23.92 ± 2.02 s⁻¹, respectively. For the same molecule, in data set [3], the “Specific activity, 3-BM” value was determined as 4.3 nmol/min/µg. Further, the “Specific activity, 3-HM” value in data set [4] amounted to 0.68 nmol/min/µg. Moreover, the “catalytic efficiency for 3-IPM relative to that for 3-HM” value in data set [5] (higher for 3-IPM than for 3-HM) is recorded as 1,000 fold. The “Specific activity, 3-IPM” value in data set [6] turned out to be 18.3 nmol/min/µg.

B4: L96G: E. coli LeuB variant with Leu-96 replaced with glycine (protein, UniProt P30125 2-363, looked up, variant L96G)
3-isopropylmalate …: SKNYHIAVLPGDGIGPEVMTQALKVLDAVRNRFAMRITTSHYDVGGAAIDNHGQPLPPATVEGCEQADAVLFGSVGGPKWEHLPPDQQPERGALGPLRKHFKLFSNLRPAKLYQGLEAFCPLRADIAANGFDILCVRELTGGIYFGQPKGREGSGQYEKAFDTEVYHRFEIERIARIAFESARKRRHKVTSIDKANVLQSSILWREIVNEIATEYPDVELAHMYIDNATMQLIKDPSQFDVLLCSNLFGDILSDECAMITGSMGMLPSASLNEQGFGLYEPAGGSAPDIAGKNIANPIAQILSLALLLRYSLDADDAACAIERAINRALEEGIRTGDLARGAAAVSTDEMGDIIARYVAEGV
B4: in data set [1], the Km was determined as 1900 ± 200 µM and the kcat turned out to be 3.12 ± 0.1 s⁻¹. For the same molecule, in data set [2], the “increase in efficiency of capturing 3-HM compared with the wild type enzyme” value is 80 fold, the Km is 30 ± 3 µM and the turnover number (kcat) was 7.58 ± 0.167 s⁻¹. The “Specific activity, 3-BM” value in data set [3] turned out to be 1.5 nmol/min/µg. Also, in data set [4], the “Specific activity, 3-HM” value worked out at 9.5 nmol/min/µg and the “activity against 3-HM compared with the wild type enzyme” value was “higher activity than the wild type enzyme”. The “decrease in efficiency” value in data set [5] amounted to 100 fold. Moreover, in data set [6], the “Specific activity, 3-IPM” value stood at 2.90 nmol/min/µg.
